US20210253679A1 (NATIONAL RESEARCH COUNCIL OF CANADA, published 2021)

Columns and labels:
[1] = target: T1, rhesus serum albumin (rhesus, UniProt Q28522 17-600); test: SPR, single cycle kinetics, pH 7.4
T1 construct: also called RhSA

[2] = target: T2, rat serum albumin (rat, UniProt P02770 25-608); test: SPR, single cycle kinetics, pH 7.4
T2 construct: also called RSA

[3] = target: T3, human serum albumin (human, UniProt P02768 25-609); test: SPR, single cycle kinetics, pH 7.4
T3 construct: also called HSA

[4] = target: T1, rhesus serum albumin; test: SPR, single cycle kinetics, pH 5.5
[5] = target: T2, rat serum albumin; test: SPR, single cycle kinetics, pH 5.5
[6] = target: T3, human serum albumin; test: SPR, single cycle kinetics, pH 5.5
[7] = target: T1, rhesus serum albumin; test: SPR, single cycle kinetics, pH 5.5; remark: listed apart in the source
[8] = target: T2, rat serum albumin; test: SPR, single cycle kinetics, pH 5.5; remark: listed apart in the source
[9] = target: T3, human serum albumin; test: SPR, single cycle kinetics, pH 5.5; remark: listed apart in the source
[10] = target: T1, rhesus serum albumin; test: SPR, single cycle kinetics, pH 7.4; remark: listed apart in the source
[11] = target: T2, rat serum albumin; test: SPR, single cycle kinetics, pH 7.4; remark: listed apart in the source
[12] = target: T4, mouse serum albumin (mouse, UniProt P07724 25-608); test: SPR, single cycle kinetics, pH 7.4
T4 construct: also called MSA

[13] = target: T3, human serum albumin; test: SPR, single cycle kinetics, pH 7.4; remark: listed apart in the source
[14] = target: T3, human serum albumin; test: SPR, single-concentration injection over an HSA surface
[15] = target: T4, mouse serum albumin; test: ITC, pH 7.4

T4 sequence (P07724 25-608 limits assumed): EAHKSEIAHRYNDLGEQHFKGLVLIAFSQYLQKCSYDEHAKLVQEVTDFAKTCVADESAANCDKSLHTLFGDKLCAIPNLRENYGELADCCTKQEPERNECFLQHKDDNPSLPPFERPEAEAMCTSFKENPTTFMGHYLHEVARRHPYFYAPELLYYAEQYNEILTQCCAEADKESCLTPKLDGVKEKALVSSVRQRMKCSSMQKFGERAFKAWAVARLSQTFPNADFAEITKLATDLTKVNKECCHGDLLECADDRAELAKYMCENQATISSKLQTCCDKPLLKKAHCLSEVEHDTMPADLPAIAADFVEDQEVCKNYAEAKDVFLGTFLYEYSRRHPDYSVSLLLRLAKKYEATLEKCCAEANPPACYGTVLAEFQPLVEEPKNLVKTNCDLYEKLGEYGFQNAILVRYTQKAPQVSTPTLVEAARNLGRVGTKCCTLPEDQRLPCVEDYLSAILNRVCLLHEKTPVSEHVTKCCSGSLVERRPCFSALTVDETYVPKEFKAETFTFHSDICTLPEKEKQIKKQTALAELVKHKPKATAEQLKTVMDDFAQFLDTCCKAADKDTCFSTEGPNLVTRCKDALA

Binder	Kd [1] [nM]	Kd [2] [nM]	Kd [3] [nM]	Kd [4] [nM]	Kd [5] [nM]	Kd [6] [nM]	Kd [7] [nM]	Kd [8] [nM]	Kd [9] [nM]	Kd [10] [nM]	Kd [11] [nM]	Kd [12] [nM]	Kd [13] [nM]	binding result [14]	binding result [2]	Kd [15] [nM]
R28-H1 (VHH) VHH: EVQLVESGGGLVQPGGSLRLSCAASGRTFIAYAMGWFRQAPGKGLEFVSAITNFAGGTTYYADSVKGRFTISRDNSKNTLYLQMNSLRAEDTAVYYCAADRSAQTMRQVRPVLPYWGQGTLVTVSS	2710	5.3	162	28.7	6.5	15.2	–	–	–	–	–	–	–	–	–	–
R28 sdAb (VHH, also called R28 VHH) VHH: QVQLVESGGGLVQAGGSLRLSCVASGRTFIAYAMGWFRQAPGKEREFVAAITNFAGGTTYYADSVKGRFTISRDNAKTTVYLQMNSLKPEDTALYYCAADRSAQTMRQVRPVLPYWGQGTQVTVSS	38.2	0.4	12.1	5.9	0.3	1.8	6	0.3	1.8	38	0.4	160	12	–	–	–
R28-H5 (VHH) VHH: QVQLVESGGGLVQPGGSLRLSCAASGRTFIAYAMGWFRQAPGKEREFVAAITNFAGGTTYYADSVKGRFTISRDNAKTTVYLQMNSLRAEDTAVYYCAADRSAQTMRQVRPVLPYWGQGTLVTVSS	145	0.4	11.1	7.3	3.5	2	–	–	–	–	–	–	–	–	–	–
R28-H4 (VHH) VHH: QVQLVESGGGLVQPGGSLRLSCAASGRTFIAYAMGWFRQAPGKEREFVAAITNFAGGTTYYADSVKGRFTISRDNAKTTLYLQMNSLRAEDTAVYYCAADRSAQTMRQVRPVLPYWGQGTLVTVSS	1740	1.1	11.5	341	5.3	51.6	–	–	–	–	–	–	–	–	–	–
R28-H3 (VHH) VHH: QVQLVESGGGLVQPGGSLRLSCAASGRTFIAYAMGWFRQAPGKEREFVAAITNFAGGTTYYADSVKGRFTISRDNSKNTLYLQMNSLRAEDTAVYYCAADRSAQTMRQVRPVLPYWGQGTLVTVSS	625	2.4	51.3	1270	1.8	47.2	–	–	–	–	–	–	–	–	–	–
B39 (VHH, not shown: small tags and cut ends, also called B39-HA-His6; B39 control) VHH: QVQLVESGGGLVQAGGSLRLSCAASGLTFSRYVMGWFRQAPGKEREFVAAITWGGTPNYADSVKGRFTISRDNSKNTQYLQMNSLKPEDTAVYYCAAGLGWDSRYSQSYNYWGQGTQVTVSS	–	–	–	–	–	–	–	–	–	–	–	–	–	no binding (tested: not printed (single concentration))	–	–
M79-H4 (VHH) VHH: QVQLVESGGGLVQPGGSLRLSCAASGSTFSSSSVGWYRQAPGQQRELVAAITSGGSTNTADSVKGRFTISRDNSKNTLYLQMNSLRAEDTAVYYCNVAGRNWVPISRYSPGPYWGQGTLVTVSS	38.7	10	58.9	2.9	8.8	8.4	–	–	–	–	–	–	–	–	–	–
M79-H3 (VHH) VHH: EVQLVESGGGLVQPGGSLRLSCAASGSTFSSSSVGWYRQAPGKQRELVSAITSGGSTNTADSVKGRFTISRDNSKNTLYLQMNSLRAEDTAVYYCNVAGRNWVPISRYSPGPYWGQGTLVTVSS	36.7	8.7	53.3	2.9	12.2	9.6	–	–	–	–	–	–	–	–	–	–
M79-H5 (VHH) VHH: QVQLVESGGGLVQPGGSLRLSCAASGSTFSSSSVGWYRQAPGQQRELVAAITSGGSTNTADSVKGRFTISRDNAKNTVYLQMNSLRAEDTAVYYCNVAGRNWVPISRYSPGPYWGQGTLVTVSS	86.5	20.2	103	4.2	6.6	8.1	–	–	–	–	–	–	–	–	–	–
M79-H2 (VHH) VHH: EVQLVESGGGLVQPGGSLRLSCAASGSTFSSSSVGWYRQAPGKGLELVSAITSGGSTNTADSVKGRFTISRDNSKNTLYLQMNSLRAEDTAVYYCNVAGRNWVPISRYSPGPYWGQGTLVTVSS	62.1	10.4	76.2	2.6	5.9	6.5	–	–	–	–	–	–	–	–	–	–
Rh46 sdAb (VHH, also called Rh46 VHH) VHH: QVKLEESGGGLVQAGGSLRLSCTASTRTFSSYIMGWFRQAPGKERELVAAISWSGRMTHYADSVKGRFAISRDNAKNTVYLQMNVLKPEDTAIYSCAADRTTAWGAPRSQYDSWGQGTQVTVSS	80.8	–	80.1	29.6	–	41.3	30	–	41	81	–	–	80	–	no binding	–
H18 sdAb (VHH, also called H18 VHH) VHH: QVQLVESGGGLVQAGGSLRLSCTASGSIESINRMAWYRQAPGQQREFVARISKGGSTNYPDSVKGRFTISRDNAKNTVYLQMNSLKPEDTAVYYCAAGPVWEQFWGQGTQVTVSS	47.6	–	33.9	42.2	–	46.2	42	–	46	48	–	–	34	–	no binding	–
R11 sdAb (VHH, also called R11 VHH) VHH: QVKLEESGGGLVQAGGSLRLSCVGPGFLLRSNTMGWYRQAPGKERELVAFIRPSGLTNYNDAVQGRFTISRDNAKNTVYLQMNALKPEDTAVYYCHTRPPFQRDSWGQGTQVTVSS	159	61.7	93.1	116	29.9	28.9	116	30	29	159	61.7	–	93	–	–	14
Rh34 sdAb (VHH, also called Rh34 VHH) VHH: QVKLEESGGGLVQAGGSLRLSCAASGRTISLYAVGWFRRAPGKEREFVAAISWTDSSTYYADSVKGRFTISRDNAKNTVYLGMNSLNPEDTAVYYCAADVSIRGLQKYEYDYWGQGTQVTVSS	333	–	286	167	–	129	167	–	129	333	–	–	286	–	no binding	–
B39-M79 (bispecific antibody, not shown: small tags and cut ends) QVQLVESGGGLVQAGGSLRLSCAASGLTFSRYVMGWFRQAPGKEREFVAAITWGGTPNYADSVKGRFTISRDNSKNTQYLQMNSLKPEDTAVYYCAAGLGWDSRYSQSYNYWGQGTQVTVSSGGGGSGGGGSGGGGSGGGGSGGGGSQVKLEESGGGLVQAGGSLKLSCAASGSTFSSSSVGWYRQAPGQQRELVAAITSGGSTNTADSVKGRFTMSRDNAKNTVYLQMRDLKPEDTAVYYCNVAGRNWVPISRYSPGPYWGQGTQVTVSS	–	–	–	–	–	–	–	–	–	–	–	–	–	binds	–	–
B39-R11 (bispecific antibody, not shown: small tags and cut ends) QVQLVESGGGLVQAGGSLRLSCAASGLTFSRYVMGWFRQAPGKEREFVAAITWGGTPNYADSVKGRFTISRDNSKNTQYLQMNSLKPEDTAVYYCAAGLGWDSRYSQSYNYWGQGTQVTVSSGGGGSGGGGSGGGGSGGGGSGGGGSQVKLEESGGGLVQAGGSLRLSCVGPGFLLRSNTMGWYRQAPGKERELVAFIRPSGLTNYNDAVQGRFTISRDNAKNTVYLQMNALKPEDTAVYYCHTRPPFQRDSWGQGTQVTVSS	–	–	–	–	–	–	–	–	–	–	–	–	–	binds	–	–
B39-R28 (bispecific antibody, not shown: small tags and cut ends) QVQLVESGGGLVQAGGSLRLSCAASGLTFSRYVMGWFRQAPGKEREFVAAITWGGTPNYADSVKGRFTISRDNSKNTQYLQMNSLKPEDTAVYYCAAGLGWDSRYSQSYNYWGQGTQVTVSSGGGGSGGGGSGGGGSGGGGSGGGGSQVQLVESGGGLVQAGGSLRLSCVASGRTFIAYAMGWFRQAPGKEREFVAAITNFAGGTTYYADSVKGRFTISRDNAKTTVYLQMNSLKPEDTALYYCAADRSAQTMRQVRPVLPYWGQGTQVTVSS	–	–	–	–	–	–	–	–	–	–	–	–	–	binds	–	–
B39-M75 (bispecific antibody, not shown: small tags and cut ends) QVQLVESGGGLVQAGGSLRLSCAASGLTFSRYVMGWFRQAPGKEREFVAAITWGGTPNYADSVKGRFTISRDNSKNTQYLQMNSLKPEDTAVYYCAAGLGWDSRYSQSYNYWGQGTQVTVSSGGGGSGGGGSGGGGSGGGGSGGGGSQVQLVESGGGFVQAGGSLRLSCAASGRTFDNYVMAWFRQAPGKEREFVASISGSGSITNYANSVKDRFTISRDSAKNAIYLQMNSLKPEDTALYYCAAGSRRTYYREPKFYPSWGQGTQVTVSS	–	–	–	–	–	–	–	–	–	–	–	–	–	binds	–	–
